Test results published in article PMC11098746 (2024).

What was measured:
Experiment in all cases: AVEXIS screen signal:noise (double-corrected)
[1] = biological target: T1, ADP334
T1 chain: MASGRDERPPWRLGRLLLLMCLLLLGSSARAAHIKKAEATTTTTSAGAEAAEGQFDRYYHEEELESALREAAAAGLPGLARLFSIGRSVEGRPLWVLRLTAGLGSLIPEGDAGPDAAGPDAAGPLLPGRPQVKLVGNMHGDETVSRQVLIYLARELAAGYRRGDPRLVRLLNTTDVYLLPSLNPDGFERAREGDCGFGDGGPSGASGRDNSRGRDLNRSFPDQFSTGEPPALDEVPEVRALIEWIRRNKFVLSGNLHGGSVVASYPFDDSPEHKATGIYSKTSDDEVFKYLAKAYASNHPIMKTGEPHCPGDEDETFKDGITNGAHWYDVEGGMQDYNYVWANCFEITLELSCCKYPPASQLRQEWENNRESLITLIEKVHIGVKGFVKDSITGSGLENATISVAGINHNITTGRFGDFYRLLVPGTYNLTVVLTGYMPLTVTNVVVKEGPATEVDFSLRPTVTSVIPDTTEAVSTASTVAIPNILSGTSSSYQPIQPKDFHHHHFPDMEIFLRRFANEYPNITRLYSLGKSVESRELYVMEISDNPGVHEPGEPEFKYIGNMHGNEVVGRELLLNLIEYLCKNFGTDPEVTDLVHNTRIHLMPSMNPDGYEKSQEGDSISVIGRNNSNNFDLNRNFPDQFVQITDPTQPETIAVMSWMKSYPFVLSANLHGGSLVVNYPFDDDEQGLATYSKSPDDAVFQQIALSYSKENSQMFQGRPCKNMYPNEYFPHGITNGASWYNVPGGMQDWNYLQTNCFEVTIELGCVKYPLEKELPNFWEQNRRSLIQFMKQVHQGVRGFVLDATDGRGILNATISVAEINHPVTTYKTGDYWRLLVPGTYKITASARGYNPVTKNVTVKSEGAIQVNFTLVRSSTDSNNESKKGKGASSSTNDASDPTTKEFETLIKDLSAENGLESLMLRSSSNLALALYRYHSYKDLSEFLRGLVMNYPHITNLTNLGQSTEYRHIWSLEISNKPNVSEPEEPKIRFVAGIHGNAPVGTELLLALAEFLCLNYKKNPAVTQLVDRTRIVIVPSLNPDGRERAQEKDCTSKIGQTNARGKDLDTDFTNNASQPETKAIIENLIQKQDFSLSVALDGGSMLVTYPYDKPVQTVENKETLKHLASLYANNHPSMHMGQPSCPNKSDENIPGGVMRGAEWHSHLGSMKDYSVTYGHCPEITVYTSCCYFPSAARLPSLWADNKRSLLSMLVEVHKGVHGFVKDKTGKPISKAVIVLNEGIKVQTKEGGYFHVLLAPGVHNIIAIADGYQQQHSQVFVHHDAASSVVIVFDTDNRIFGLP

[2] = biological target: T2, ADP389
T2 chain: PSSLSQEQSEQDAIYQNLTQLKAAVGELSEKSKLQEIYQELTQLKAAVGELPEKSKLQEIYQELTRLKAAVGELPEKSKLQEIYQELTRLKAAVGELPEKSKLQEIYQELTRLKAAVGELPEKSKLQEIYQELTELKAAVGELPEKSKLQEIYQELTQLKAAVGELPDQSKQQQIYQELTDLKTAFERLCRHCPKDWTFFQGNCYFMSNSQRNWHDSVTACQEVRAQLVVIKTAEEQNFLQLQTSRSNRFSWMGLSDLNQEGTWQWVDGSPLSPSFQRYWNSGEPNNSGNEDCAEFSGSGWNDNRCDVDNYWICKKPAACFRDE

[3] = biological target: ADP326
[4] = biological target: T3, ADP320
T3 chain: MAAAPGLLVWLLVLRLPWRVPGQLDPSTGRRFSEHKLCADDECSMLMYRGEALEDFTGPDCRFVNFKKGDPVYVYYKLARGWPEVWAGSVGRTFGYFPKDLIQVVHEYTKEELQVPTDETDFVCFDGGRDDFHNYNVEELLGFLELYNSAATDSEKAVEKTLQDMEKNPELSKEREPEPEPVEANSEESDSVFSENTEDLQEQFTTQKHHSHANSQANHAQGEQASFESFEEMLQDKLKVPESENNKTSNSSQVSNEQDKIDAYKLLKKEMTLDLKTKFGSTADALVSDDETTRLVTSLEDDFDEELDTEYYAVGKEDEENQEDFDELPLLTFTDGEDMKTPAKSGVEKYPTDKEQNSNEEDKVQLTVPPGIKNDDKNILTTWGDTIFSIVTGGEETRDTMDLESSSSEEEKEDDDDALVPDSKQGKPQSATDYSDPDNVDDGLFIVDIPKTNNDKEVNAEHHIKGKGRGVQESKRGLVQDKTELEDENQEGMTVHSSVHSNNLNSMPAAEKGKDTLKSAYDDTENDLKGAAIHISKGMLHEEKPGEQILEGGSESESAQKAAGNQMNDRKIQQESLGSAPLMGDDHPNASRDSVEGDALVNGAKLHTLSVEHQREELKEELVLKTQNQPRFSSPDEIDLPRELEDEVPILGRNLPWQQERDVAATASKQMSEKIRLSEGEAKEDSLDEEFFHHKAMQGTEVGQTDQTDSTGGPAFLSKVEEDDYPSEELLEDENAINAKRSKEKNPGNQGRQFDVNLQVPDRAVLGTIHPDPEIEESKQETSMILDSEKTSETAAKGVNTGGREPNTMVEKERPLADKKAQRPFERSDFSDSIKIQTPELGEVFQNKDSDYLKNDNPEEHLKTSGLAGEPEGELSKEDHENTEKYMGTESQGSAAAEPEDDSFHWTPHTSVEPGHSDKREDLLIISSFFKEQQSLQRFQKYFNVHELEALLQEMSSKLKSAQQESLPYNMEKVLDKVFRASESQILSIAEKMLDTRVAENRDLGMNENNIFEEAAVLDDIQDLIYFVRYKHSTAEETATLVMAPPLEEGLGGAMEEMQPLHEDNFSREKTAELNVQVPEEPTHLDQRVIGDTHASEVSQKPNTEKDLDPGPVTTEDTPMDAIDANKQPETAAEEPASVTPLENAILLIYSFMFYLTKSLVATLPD

[5] = biological target: T4, ADP375
T4 chain: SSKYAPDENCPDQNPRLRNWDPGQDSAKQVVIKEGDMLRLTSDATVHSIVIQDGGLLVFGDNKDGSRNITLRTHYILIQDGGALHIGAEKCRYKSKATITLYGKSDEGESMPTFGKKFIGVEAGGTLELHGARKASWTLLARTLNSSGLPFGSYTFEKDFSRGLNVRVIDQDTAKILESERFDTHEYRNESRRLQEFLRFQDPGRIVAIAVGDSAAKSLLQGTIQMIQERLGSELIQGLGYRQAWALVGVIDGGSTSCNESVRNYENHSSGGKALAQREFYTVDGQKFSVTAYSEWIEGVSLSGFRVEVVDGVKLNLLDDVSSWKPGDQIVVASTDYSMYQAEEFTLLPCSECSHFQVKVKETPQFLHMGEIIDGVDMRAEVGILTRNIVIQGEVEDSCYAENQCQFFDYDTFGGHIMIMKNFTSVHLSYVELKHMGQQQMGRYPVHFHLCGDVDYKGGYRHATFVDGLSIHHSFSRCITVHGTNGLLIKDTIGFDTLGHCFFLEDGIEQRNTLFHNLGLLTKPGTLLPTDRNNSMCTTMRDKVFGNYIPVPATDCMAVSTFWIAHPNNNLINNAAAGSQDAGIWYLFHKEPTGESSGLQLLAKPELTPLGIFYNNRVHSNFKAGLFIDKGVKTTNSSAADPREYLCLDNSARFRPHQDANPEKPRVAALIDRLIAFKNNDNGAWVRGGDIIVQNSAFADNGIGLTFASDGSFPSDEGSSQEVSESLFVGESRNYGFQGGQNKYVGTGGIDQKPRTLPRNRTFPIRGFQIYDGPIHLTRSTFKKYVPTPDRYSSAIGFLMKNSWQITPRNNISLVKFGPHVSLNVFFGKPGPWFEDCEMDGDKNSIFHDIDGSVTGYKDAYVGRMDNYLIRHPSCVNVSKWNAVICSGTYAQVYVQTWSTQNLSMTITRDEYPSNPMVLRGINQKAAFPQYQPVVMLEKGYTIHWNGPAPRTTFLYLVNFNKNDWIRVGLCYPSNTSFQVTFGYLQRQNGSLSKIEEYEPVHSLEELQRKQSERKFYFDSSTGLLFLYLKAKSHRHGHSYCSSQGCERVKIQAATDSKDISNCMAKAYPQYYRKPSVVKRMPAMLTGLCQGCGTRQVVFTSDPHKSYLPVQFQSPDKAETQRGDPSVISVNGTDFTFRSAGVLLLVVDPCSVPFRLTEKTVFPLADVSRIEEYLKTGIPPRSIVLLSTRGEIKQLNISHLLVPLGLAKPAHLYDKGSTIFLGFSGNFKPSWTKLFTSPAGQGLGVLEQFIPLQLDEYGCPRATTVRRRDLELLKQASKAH

B1: ADP172 (protein)
chain: YLEQIKNGISGHYTEDHNIKNNNCISFSDYERSIKNFAISSHAENNYDNIINEYKKIKDINNNINILSSVHRKGRILYDSFLEINKLENDKKEKHEKEDEYEDNDESFLETEEYEDNEDEKYNKDEDDYAESFIETDEYEDNEDDKYNKDEDDYSESFIETDEYDDNEEEQYNKDEDDYTDSFIETDHYENNDDKNEEEEEYNDQDNDYGYNFLETDEYDDSEEYDYDDKEYGESFLEKEEGEEMKDEEMKDEEMKDVEMKDEEMKDEEMKYDEMKNEEMKYDEMKDEVMKDEEMKDEVMKDEEMKDEQMKYEEFKNEESKNEESKNEESKNEESKNEEFKNEESKNEEFKNEEFKNEDMSYDEYMGYKKKEEDESYNTFNGAKKNNAANSFLEKDLQGDSDDELHSTFYSKNVDKENYDDKNIFYGYSDNDDESFLETDSYEEYEDEDKDVEDEYEESFLQNDEKKMVFYDLYKPEENEAYYEKKQKKEEKEEKEEKEQSLNKQNDMEDQEDNEEYKFEEENKEDLLDVQQDEELPSEGKQKVKGKSFDNEHLNEIQNVADVHAFIQKDMKYLDDLIDEEQTIKDAVKKSAYKGNKKLGNNKKSQMILEEEPEENFEEDADEELNKLMEQEKNIVDKEIKNSKANKANKKLQFNNANKQNKMYMKNEYNNKAKNNKNNKFEQQNYDESYMDDDYEQNEEFNDNNQAEDMKETNELDKINDELLTDQGPNEDTLLENNNKIFDNKFVAHKKREKSISPHSYQKVSTKVQNKEDMENKEEKQLINDEAAMTAEELVELENTEDVNTPTMVETEEIDSDENGNKAS
modifications: bait human Fc-tagged dimer; N-glycosylation sequons mutated in Plasmodium baits
binding score [1]: 13.1 | binding score [2]: 7.86

B2: ADP193 (protein)
chain: GEEKLTKFDPVMIKEGELFGEVSYDCEYSGFLEIENDDILYYCFFVGEDDHNGLLLRKFHMDDMVWGIPMEVLITRKKINLYILTVDYILSKLILIYSFDEKIRITVFNNYMEESVMSEKISINYEILYKANMISYITYFYKNKKSLCVCGMNRNENILCTFSFDYGLTMKDDHTIEFFLKKKIPLGHYKMQVTFKETEVYFNLYNDLNEANFYELKCVKKQDEYICDIMNKIRETQEYNYKRYTYPSSEHNKYYNDHHNKQPQGKQGQQGGAPLPNLGEEENNFIYKHIVRNKYFQMIVFQKDQKCYLAWSFNSLNINDEITKEISSVPCSNVASYYRQERLIVTLKKNQLGSRNHFFLIYEKLTEKGVGCEFGVGGSLYVTKTFMNNACDMDINNMNVATTNYDEINFALIIPLSFQLNYATCFIWEENVDNNEERSSLYYLEEYTNEKEDIKVYTFYFYKYILIYKNFKKSTCTFESKNNEKLYISFRGDTYYKEYNCNILLDSCDFFLHTQSKINIAYDDDVWQVSEELYDGFVMYNGAYVSLYDVLSRSNAHGLIYIDGKENNAAINLNNIKNNNNNNNNNNNNNNAANNNNIANNANSNNAFGEHEKVITIIIPYGIPSTRTIKIEFLNKQNNEEKRWAYLRLQKNEYIMKKVIGINSADIFDLSYKYYKYNQEKIKFILNDFSETTYLGFICQTKEEIKKSLCTISLVDHSHKNMAINNLFKTNNHILPFLYDQSPPRKIQPYNQIISEFRFVLFKNFHLFLQENKINYILLKCMCSSSSSYINTQKNIELSYLITNEQVSHDFIHTPGILIRPRTNIAHNDYQKNNKGNHKGNNKANNKANDKDSNNNANNNANKNGNNHNDNNNNNQNKDIDINSNYAIHNNNEKVKRTKKKINDAPYDKQDEELPSYDFNDLLHEKKNGASVFDFNFVLFLFICITFF
modifications: bait human Fc-tagged dimer; N-glycosylation sequons mutated in Plasmodium baits
binding score [3]: 9.3 | binding score [4]: 7.53 | binding score [5]: 8.14
